In patent publication US20240024432A1 (DENALI THERAPEUTICS, published 2024):

B1: 3.2-14 (designed binder)
modified Fc polypeptide displayed on yeast (c-Myc tagged): PCPAPELLGGPSVFLFPPKPKDTLMISRTPEVTCVVVDVSHEDPEVKFNWYVDGVEVHNAKTKPREEQYNSTYRVVSVLTVLHQDWLNGKEYKCKVSNKALPAPIEKTISKAKGQPREPQVYTLPPSRDELTKNQVSLTCLVKGFYPSDIAVEWESLGHVWVGVKTTPPVLDSDGSFFLYSKLTVPKSTWQQGWVFSCSVMHEALHNHYTQKSLSLSPGK
notes: also called CH3C.3.2-14
B2: 3.4-26 (designed binder)
modified Fc polypeptide displayed on yeast (c-Myc tagged): PCPAPELLGGPSVFLFPPKPKDTLMISRTPEVTCVVVDVSHEDPEVKFNWYVDGVEVHNAKTKPREEQYNSTYRVVSVLTVLHQDWLNGKEYKCKVSNKALPAPIEKTISKAKGQPREPQVYTLPPSRDELTKNQVSLTCLVKGFYPSDIAVEWESWGTVWGTYKTTPPVLDSDGSFFLYSKLTVPKSNWQQGYVFSCSVMHEALHNHYTQKSLSLSPGK
notes: also called CH3C.3.4-26
B3: 3.2-5 (designed binder)
modified Fc polypeptide displayed on yeast (c-Myc tagged): PCPAPELLGGPSVFLFPPKPKDTLMISRTPEVTCVVVDVSHEDPEVKFNWYVDGVEVHNAKTKPREEQYNSTYRVVSVLTVLHQDWLNGKEYKCKVSNKALPAPIEKTISKAKGQPREPQVYTLPPSRDELTKNQVSLTCLVKGFYPSDIAVEWESLGHVWVDQKTTPPVLDSDGSFFLYSKLTVPKSTWQQGWVFSCSVMHEALHNHYTQKSLSLSPGK
notes: also called CH3C.3.2-5
B4: 3.1-3 (designed binder)
modified Fc polypeptide displayed on yeast (c-Myc tagged): PCPAPELLGGPSVFLFPPKPKDTLMISRTPEVTCVVVDVSHEDPEVKFNWYVDGVEVHNAKTKPREEQYNSTYRVVSVLTVLHQDWLNGKEYKCKVSNKALPAPIEKTISKAKGQPREPQVYTLPPSRDELTKNQVSLTCLVKGFYPSDIAVEWESLGHVWVATKTTPPVLDSDGSFFLYSKLTVPKSTWQQGWVFSCSVMHEALHNHYTQKSLSLSPGK
notes: also called CH3C.3.1-3
B5: 3.2-17 (designed binder)
modified Fc polypeptide displayed on yeast (c-Myc tagged): PCPAPELLGGPSVFLFPPKPKDTLMISRTPEVTCVVVDVSHEDPEVKFNWYVDGVEVHNAKTKPREEQYNSTYRVVSVLTVLHQDWLNGKEYKCKVSNKALPAPIEKTISKAKGQPREPQVYTLPPSRDELTKNQVSLTCLVKGFYPSDIAVEWESLGHVWVGTKTTPPVLDSDGSFFLYSKLTVPKSTWQQGWVFSCSVMHEALHNHYTQKSLSLSPGK
notes: also called CH3C.3.2-17
B6: 3.4-1 (designed binder)
modified Fc polypeptide displayed on yeast (c-Myc tagged): PCPAPELLGGPSVFLFPPKPKDTLMISRTPEVTCVVVDVSHEDPEVKFNWYVDGVEVHNAKTKPREEQYNSTYRVVSVLTVLHQDWLNGKEYKCKVSNKALPAPIEKTISKAKGQPREPQVYTLPPSRDELTKNQVSLTCLVKGFYPSDIAVEWESWGFVWSTYKTTPPVLDSDGSFFLYSKLTVPKSNWQQGFVFSCSVMHEALHNHYTQKSLSLSPGK
notes: also called CH3C.3.4-1
B7: 3.2-1 (designed binder)
modified Fc polypeptide displayed on yeast (c-Myc tagged): PCPAPELLGGPSVFLFPPKPKDTLMISRTPEVTCVVVDVSHEDPEVKFNWYVDGVEVHNAKTKPREEQYNSTYRVVSVLTVLHQDWLNGKEYKCKVSNKALPAPIEKTISKAKGQPREPQVYTLPPSRDELTKNQVSLTCLVKGFYPSDIAVEWESLGHVWVNFKTTPPVLDSDGSFFLYSKLTVPKSTWQQGWVFSCSVMHEALHNHYTQKSLSLSPGK
notes: also called CH3C.3.2-1
B8: 3.2-19 (designed binder)
modified Fc polypeptide displayed on yeast (c-Myc tagged): PCPAPELLGGPSVFLFPPKPKDTLMISRTPEVTCVVVDVSHEDPEVKFNWYVDGVEVHNAKTKPREEQYNSTYRVVSVLTVLHQDWLNGKEYKCKVSNKALPAPIEKTISKAKGQPREPQVYTLPPSRDELTKNQVSLTCLVKGFYPSDIAVEWESLGHVWVNQKTTPPVLDSDGSFFLYSKLTVPKSTWQQGWVFSCSVMHEALHNHYTQKSLSLSPGK
notes: also called CH3C.3.2-19
B9: 3.4-19 (designed binder)
modified Fc polypeptide displayed on yeast (c-Myc tagged): PCPAPELLGGPSVFLFPPKPKDTLMISRTPEVTCVVVDVSHEDPEVKFNWYVDGVEVHNAKTKPREEQYNSTYRVVSVLTVLHQDWLNGKEYKCKVSNKALPAPIEKTISKAKGQPREPQVYTLPPSRDELTKNQVSLTCLVKGFYPSDIAVEWESWGHVWSTYKTTPPVLDSDGSFFLYSKLTVPKSNWQQGYVFSCSVMHEALHNHYTQKSLSLSPGK
notes: also called CH3C.3.4-19
B10: 3.2-3 (designed binder)
modified Fc polypeptide displayed on yeast (c-Myc tagged): PCPAPELLGGPSVFLFPPKPKDTLMISRTPEVTCVVVDVSHEDPEVKFNWYVDGVEVHNAKTKPREEQYNSTYRVVSVLTVLHQDWLNGKEYKCKVSNKALPAPIEKTISKAKGQPREPQVYTLPPSRDELTKNQVSLTCLVKGFYPSDIAVEWESLGHVWVEQKTTPPVLDSDGSFFLYSKLTVPKSTWQQGWVFSCSVMHEALHNHYTQKSLSLSPGK
notes: also called CH3C.3.2-3
B11: 3.2-24 (designed binder)
modified Fc polypeptide displayed on yeast (c-Myc tagged): PCPAPELLGGPSVFLFPPKPKDTLMISRTPEVTCVVVDVSHEDPEVKFNWYVDGVEVHNAKTKPREEQYNSTYRVVSVLTVLHQDWLNGKEYKCKVSNKALPAPIEKTISKAKGQPREPQVYTLPPSRDELTKNQVSLTCLVKGFYPSDIAVEWESLGHVWVHTKTTPPVLDSDGSFFLYSKLTVPKSTWQQGWVFSCSVMHEALHNHYTQKSLSLSPGK
notes: also called CH3C.3.2-24
B12: CH3C.35 (designed binder)
modified Fc polypeptide displayed on yeast (c-Myc tagged): PCPAPELLGGPSVFLFPPKPKDTLMISRTPEVTCVVVDVSHEDPEVKFNWYVDGVEVHNAKTKPREEQYNSTYRVVSVLTVLHQDWLNGKEYKCKVSNKALPAPIEKTISKAKGQPREPQVYTLPPSRDELTKNQVSLTCLVKGFYPSDIAVEWESYGTEWSSYKTTPPVLDSDGSFFLYSKLTVTKSEWQQGFVFSCSVMHEALHNHYTQKSLSLSPGK

Tests used:
[1] = biological target: T1, cynomolgus transferrin receptor (TfR) ectodomain (ECD) (cynomolgus, UniProt Q5RDH6 121-760 (Pongo abelii entry), biotinylated where captured on streptavidin); test: yeast surface display flow cytometry; yeast-displayed clone stained with 250 nM biotinylated cyno TfR, neutravidin-AF647; median fluorescence intensity
T1 construct: also called cyno TfR; cynoTfR; not shown: C-terminal cleavable His- and Avi-tags
T1 chain: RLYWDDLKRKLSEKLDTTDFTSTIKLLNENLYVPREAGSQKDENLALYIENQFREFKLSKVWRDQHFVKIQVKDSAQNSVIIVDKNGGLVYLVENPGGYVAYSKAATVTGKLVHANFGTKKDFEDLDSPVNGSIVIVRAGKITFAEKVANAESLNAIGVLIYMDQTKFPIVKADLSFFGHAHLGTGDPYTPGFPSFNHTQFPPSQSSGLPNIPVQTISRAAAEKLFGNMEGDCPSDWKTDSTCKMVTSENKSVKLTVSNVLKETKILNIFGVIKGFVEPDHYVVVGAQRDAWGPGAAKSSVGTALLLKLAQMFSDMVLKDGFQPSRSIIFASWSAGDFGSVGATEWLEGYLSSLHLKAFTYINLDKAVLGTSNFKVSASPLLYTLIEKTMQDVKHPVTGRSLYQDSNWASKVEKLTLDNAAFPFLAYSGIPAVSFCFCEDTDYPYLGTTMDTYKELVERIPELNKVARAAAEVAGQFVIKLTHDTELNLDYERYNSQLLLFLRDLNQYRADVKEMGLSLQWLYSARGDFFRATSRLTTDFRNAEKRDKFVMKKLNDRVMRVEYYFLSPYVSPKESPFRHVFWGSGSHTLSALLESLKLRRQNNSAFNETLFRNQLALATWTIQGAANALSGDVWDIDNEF
Description: (§1) For each clone, two million cells were washed three times in PBS+0.5% BSA at pH 7.4. […] Cells were stained with nuetravidin-Alexafluor647 (AF647) for 30 minutes at 4° C., then washed twice again. Expression was measured using anti-c-myc antibody with anti-chicken-Alexfluor488 (AF488) secondary antibody. Cells were resuspended, and median fluorescence intensity (MFI) of AF647 and AF488 was measured on a BD FACS CantoII. MFI was calculated for the TfR-binding population for each population and plotted with human TfR, cyno TfR, or control binding (FIG. 44).

[2] = biological target: T2, human transferrin receptor (TfR) ectodomain (ECD) (human, UniProt P02786 121-760, biotinylated where captured on streptavidin); test: yeast surface display flow cytometry; yeast-displayed clone stained with 250 nM biotinylated human TfR, neutravidin-AF647; median fluorescence intensity
T2 construct: also called human TfR; huTfR; not shown: C-terminal cleavable His- and Avi-tags
Description: as §1

Binder	binding result [1]	binding result [2]
B1	binds	binds
B2	binds	binds
B3	binds	binds
B4	binds	binds
B5	binds	binds
B6	binds	binds
B7	binds	binds
B8	binds	binds
B9	binds	binds
B10	binds	binds
B11	binds	binds
B12	binds	binds
